# Laboratory results from the supplement of paper PMC10724198.
# Columns and labels:
# Saccharomyces cerevisiae [1] = assay: protein stability index of tFT-peptide fusion in wild type (PSI (0-1 scale)); higher = more stable (slower turnover); settings: genetic background: wild type
# Saccharomyces cerevisiae [2] = assay: protein stability index of tFT-peptide fusion in deletion strain of DOA10 (PSI (0-1 scale)); higher = more stable (slower turnover)
# Protocol: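 MPS profiling in S. cerevisiae of two library types built from selected 12-aa C-degron peptides (IN1, IN2, LN1, LN3, VN2, R1-R5, W1-W3, Atg1 and Rpa12 C-termini): saturation mutagenesis libraries and C-terminal +1 capping libraries (13 aa). Each peptide is fused to the C-terminus of a sfGFP-mCherry timer, after a GGGS linker. Cells are FACS-sorted into 8 mCherry/sfGFP bins and sequenced. PSI runs from 0 (unstable) to 1 (stable), measured once in wild type and in the das1Δ or doa10Δ background.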
# Saccharomyces cerevisiae [3] = assay: protein stability index of tFT-peptide fusion in deletion strain of DAS1 (PSI (0-1 scale)); higher = more stable (slower turnover)
# 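Wherever protein stability index of tFT-peptide fusion in deletion strain of DAS1 is given: PSI is a weighted mean of each variant's read distribution over the sorted stability bins, computed only for variants having over 10 reads in total.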
# 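Wherever protein stability index of tFT-peptide fusion in deletion strain of DOA10 is given: PSI per variant is the weighted mean of its sequencing read distribution over the sorted stability bins, counting only variants with over 10 reads summed across bins.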
# 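Wherever protein stability index of tFT-peptide fusion in wild type is given: PSI derived as read-weighted mean over the 8 sorting bins, only variants exceeding 10 total reads kept, mCherry placed adjacent to the peptide and sfGFP distal.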
sequence,measurement,setting,value
RVTRLDAIYFRV,protein stability index,Saccharomyces cerevisiae [1],0.342
same,protein stability index,Saccharomyces cerevisiae [2],0.63
AITLPMCPWLLR,protein stability index,Saccharomyces cerevisiae [1],0.652
same,protein stability index,Saccharomyces cerevisiae [2],0.667
GLYMCSVGCGFR,protein stability index,Saccharomyces cerevisiae [1],0.628
same,protein stability index,Saccharomyces cerevisiae [2],0.655
CLVSLIILLFFR,protein stability index,Saccharomyces cerevisiae [1],0.298
same,protein stability index,Saccharomyces cerevisiae [2],0.363
RVKRLDAIYFRI,protein stability index,Saccharomyces cerevisiae [1],0.392
same,protein stability index,Saccharomyces cerevisiae [2],0.64
LKILRQKMNHQQ,protein stability index,Saccharomyces cerevisiae [1],0.193
same,protein stability index,Saccharomyces cerevisiae [3],0.691
CTSCGYKFRTNNC,protein stability index,Saccharomyces cerevisiae [1],0.708
same,protein stability index,Saccharomyces cerevisiae [3],0.673
PSLAASFWKVVG,protein stability index,Saccharomyces cerevisiae [1],0.31
same,protein stability index,Saccharomyces cerevisiae [3],0.674
KKHKKGQKKKIN,protein stability index,Saccharomyces cerevisiae [1],0.523
same,protein stability index,Saccharomyces cerevisiae [3],0.576
LVVYLSCVAAIN,protein stability index,Saccharomyces cerevisiae [1],0.0144
same,protein stability index,Saccharomyces cerevisiae [3],0.0388
CTSCGYYFRTNN,protein stability index,Saccharomyces cerevisiae [1],0.283
same,protein stability index,Saccharomyces cerevisiae [3],0.697
LKILRQKINHQN,protein stability index,Saccharomyces cerevisiae [1],0.23
same,protein stability index,Saccharomyces cerevisiae [3],0.668
LVVYLSCQACIN,protein stability index,Saccharomyces cerevisiae [1],0.00888
same,protein stability index,Saccharomyces cerevisiae [3],0.0148
VRGAVGGWRLVGN,protein stability index,Saccharomyces cerevisiae [1],0.639
same,protein stability index,Saccharomyces cerevisiae [3],0.67
RLIQPLMVQFLN,protein stability index,Saccharomyces cerevisiae [1],0.0988
same,protein stability index,Saccharomyces cerevisiae [3],0.598
KKHMKGQKQKIN,protein stability index,Saccharomyces cerevisiae [1],0.103
same,protein stability index,Saccharomyces cerevisiae [3],0.551
PDKRNHLHKLLN,protein stability index,Saccharomyces cerevisiae [1],0.265
same,protein stability index,Saccharomyces cerevisiae [3],0.59
VRLAVGGWRLVG,protein stability index,Saccharomyces cerevisiae [1],0.131
same,protein stability index,Saccharomyces cerevisiae [3],0.679
LKILRQKMNRQN,protein stability index,Saccharomyces cerevisiae [1],0.21
same,protein stability index,Saccharomyces cerevisiae [3],0.68
PDKRNHLIKLLE,protein stability index,Saccharomyces cerevisiae [1],0.579
same,protein stability index,Saccharomyces cerevisiae [3],0.606
LKILRQKMNHQNK,protein stability index,Saccharomyces cerevisiae [1],0.656
same,protein stability index,Saccharomyces cerevisiae [3],0.664
LKIFRQKMNHQN,protein stability index,Saccharomyces cerevisiae [1],0.191
same,protein stability index,Saccharomyces cerevisiae [3],0.669
LKILRQKMNHQN,protein stability index,Saccharomyces cerevisiae [1],0.192
same,protein stability index,Saccharomyces cerevisiae [3],0.674
PDKRNHMIKLLN,protein stability index,Saccharomyces cerevisiae [1],0.0922
same,protein stability index,Saccharomyces cerevisiae [3],0.625
LYVYLSCVACIN,protein stability index,Saccharomyces cerevisiae [1],0.0152
same,protein stability index,Saccharomyces cerevisiae [3],0.0144
VRGAVGGWYLVG,protein stability index,Saccharomyces cerevisiae [1],0.603
same,protein stability index,Saccharomyces cerevisiae [3],0.691
CTSWGYKFRTNN,protein stability index,Saccharomyces cerevisiae [1],0.137
same,protein stability index,Saccharomyces cerevisiae [3],0.744
ARWRVQLWRGAS,protein stability index,Saccharomyces cerevisiae [1],0.287
same,protein stability index,Saccharomyces cerevisiae [3],0.689
PSLAASFWRTVG,protein stability index,Saccharomyces cerevisiae [1],0.172
same,protein stability index,Saccharomyces cerevisiae [3],0.698
CTSCGYKFRTNL,protein stability index,Saccharomyces cerevisiae [1],0.652
same,protein stability index,Saccharomyces cerevisiae [3],0.703
ERGAVGGWRLVG,protein stability index,Saccharomyces cerevisiae [1],0.168
same,protein stability index,Saccharomyces cerevisiae [3],0.675
KKEKKGQKQKIN,protein stability index,Saccharomyces cerevisiae [1],0.0774
same,protein stability index,Saccharomyces cerevisiae [3],0.578
YSMRWTFRYWVN,protein stability index,Saccharomyces cerevisiae [1],0.042
same,protein stability index,Saccharomyces cerevisiae [3],0.495
PSLAASFWRVVH,protein stability index,Saccharomyces cerevisiae [1],0.448
same,protein stability index,Saccharomyces cerevisiae [3],0.695
LKALRQKMNHQN,protein stability index,Saccharomyces cerevisiae [1],0.213
same,protein stability index,Saccharomyces cerevisiae [3],0.672
FSMRWTFRYWVNI,protein stability index,Saccharomyces cerevisiae [1],0.134
same,protein stability index,Saccharomyces cerevisiae [3],0.527
NKILRQKMNHQN,protein stability index,Saccharomyces cerevisiae [1],0.113
same,protein stability index,Saccharomyces cerevisiae [3],0.701
LVVYLACVACIN,protein stability index,Saccharomyces cerevisiae [1],0.0186
same,protein stability index,Saccharomyces cerevisiae [3],0.041
RKILRQKMNHQN,protein stability index,Saccharomyces cerevisiae [1],0.162
same,protein stability index,Saccharomyces cerevisiae [3],0.69
LKILRAKMNHQN,protein stability index,Saccharomyces cerevisiae [1],0.223
same,protein stability index,Saccharomyces cerevisiae [3],0.665
KKFKKGQKQKIN,protein stability index,Saccharomyces cerevisiae [1],0.129
same,protein stability index,Saccharomyces cerevisiae [3],0.575
CTSCGYKFVTNN,protein stability index,Saccharomyces cerevisiae [1],0.495
same,protein stability index,Saccharomyces cerevisiae [3],0.692
TRGAVGGWRLVG,protein stability index,Saccharomyces cerevisiae [1],0.162
same,protein stability index,Saccharomyces cerevisiae [3],0.68
LKILRQKMNVQN,protein stability index,Saccharomyces cerevisiae [1],0.226
same,protein stability index,Saccharomyces cerevisiae [3],0.661
LKILRRKMNHQN,protein stability index,Saccharomyces cerevisiae [1],0.216
same,protein stability index,Saccharomyces cerevisiae [3],0.648
LVVYLSCVPCIN,protein stability index,Saccharomyces cerevisiae [1],0.237
same,protein stability index,Saccharomyces cerevisiae [3],0.305
RTSCGYKFRTNN,protein stability index,Saccharomyces cerevisiae [1],0.188
same,protein stability index,Saccharomyces cerevisiae [3],0.685
RLIQPLPVQFLNA,protein stability index,Saccharomyces cerevisiae [1],0.545
same,protein stability index,Saccharomyces cerevisiae [3],0.612
PSLAASFWRVVGA,protein stability index,Saccharomyces cerevisiae [1],0.545
same,protein stability index,Saccharomyces cerevisiae [3],0.681
CTSCGYKFRTNNT,protein stability index,Saccharomyces cerevisiae [1],0.692
same,protein stability index,Saccharomyces cerevisiae [3],0.689
PSLLASFWRVVG,protein stability index,Saccharomyces cerevisiae [1],0.145
same,protein stability index,Saccharomyces cerevisiae [3],0.695
PDKRNCLIKLLN,protein stability index,Saccharomyces cerevisiae [1],0.148
same,protein stability index,Saccharomyces cerevisiae [3],0.586
PDKRNHLIKLLNK,protein stability index,Saccharomyces cerevisiae [1],0.655
same,protein stability index,Saccharomyces cerevisiae [3],0.67
VRGAVGGWRLVD,protein stability index,Saccharomyces cerevisiae [1],0.615
same,protein stability index,Saccharomyces cerevisiae [3],0.684
LQILRQKMNHQN,protein stability index,Saccharomyces cerevisiae [1],0.117
same,protein stability index,Saccharomyces cerevisiae [3],0.701
CTLCGYKFRTNN,protein stability index,Saccharomyces cerevisiae [1],0.278
same,protein stability index,Saccharomyces cerevisiae [3],0.72
VRGAVGGWRRVG,protein stability index,Saccharomyces cerevisiae [1],0.163
same,protein stability index,Saccharomyces cerevisiae [3],0.67
ARRRVGLWRGAS,protein stability index,Saccharomyces cerevisiae [1],0.538
same,protein stability index,Saccharomyces cerevisiae [3],0.723
